Measured values reported in paper doi:10.1101/2025.05.02.651858.

Target: ϕC31 integrase^S12A-RDF fusion protein (Streptomyces phage ϕC31) (UniProt Q9T221)
Assay: SEC-MALS

“ϕC31 integrase^S12A-RDF fusion protein (from UniProt Q9T221 1-605)” was tested, and the stoichiometry N was 4.
